Experimental data from patent publication US20260209316A1 (US Dept. of Health and Human Services, published 2026).
Read-outs that look alike come from different tables or passages of the source.

Experiments:
[1] = target: T1, full-length Zaire GP (GPFL) (Ebola (Zaire) virus (EBOV), UniProt Q05320 33-632); experiment: ELISA on coated GP
T1 construct: also called Zaire GPFL; GP(Z)FL
T1 sequence: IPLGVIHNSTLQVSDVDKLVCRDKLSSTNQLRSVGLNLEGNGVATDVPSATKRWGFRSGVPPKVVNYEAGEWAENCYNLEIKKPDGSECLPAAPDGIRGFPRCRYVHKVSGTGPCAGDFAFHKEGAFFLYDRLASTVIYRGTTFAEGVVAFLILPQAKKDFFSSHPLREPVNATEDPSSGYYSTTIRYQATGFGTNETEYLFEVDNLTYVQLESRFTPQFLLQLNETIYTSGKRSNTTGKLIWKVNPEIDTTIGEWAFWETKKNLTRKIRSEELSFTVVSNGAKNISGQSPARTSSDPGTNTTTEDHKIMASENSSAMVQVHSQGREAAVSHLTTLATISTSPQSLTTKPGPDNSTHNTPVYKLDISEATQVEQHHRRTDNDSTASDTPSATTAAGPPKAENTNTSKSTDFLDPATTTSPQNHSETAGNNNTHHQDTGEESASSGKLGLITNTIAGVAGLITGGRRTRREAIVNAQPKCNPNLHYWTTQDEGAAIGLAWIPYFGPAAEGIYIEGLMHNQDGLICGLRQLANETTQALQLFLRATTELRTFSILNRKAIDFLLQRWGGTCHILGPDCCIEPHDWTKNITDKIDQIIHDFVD

[2] = target: T1, full-length Zaire GP (GPFL); experiment: ELISA on coated GP; remark: listed apart in the source
[3] = target: T2, EBOV GP on pseudotyped lentiviral vector (Ebola (Zaire) virus (EBOV), UniProt Q05320 33-676); experiment: cell-based or functional assay
T2 sequence: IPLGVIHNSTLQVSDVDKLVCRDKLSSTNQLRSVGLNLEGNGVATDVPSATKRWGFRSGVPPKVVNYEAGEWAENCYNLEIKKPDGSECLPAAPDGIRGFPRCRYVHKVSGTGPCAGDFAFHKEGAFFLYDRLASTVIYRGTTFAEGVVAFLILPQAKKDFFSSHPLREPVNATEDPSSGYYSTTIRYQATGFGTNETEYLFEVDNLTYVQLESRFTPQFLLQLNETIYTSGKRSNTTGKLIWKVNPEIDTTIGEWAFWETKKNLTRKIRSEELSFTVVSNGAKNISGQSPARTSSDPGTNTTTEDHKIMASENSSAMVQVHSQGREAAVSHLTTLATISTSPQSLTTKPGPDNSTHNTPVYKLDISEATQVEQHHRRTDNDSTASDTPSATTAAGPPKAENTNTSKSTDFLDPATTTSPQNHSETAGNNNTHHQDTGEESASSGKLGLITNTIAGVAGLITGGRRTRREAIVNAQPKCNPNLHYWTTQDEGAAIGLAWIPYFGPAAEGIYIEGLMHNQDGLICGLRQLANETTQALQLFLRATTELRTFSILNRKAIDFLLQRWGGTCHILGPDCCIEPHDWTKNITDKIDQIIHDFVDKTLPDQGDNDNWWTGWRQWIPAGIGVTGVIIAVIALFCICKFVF

[4] = target: T2, EBOV GP on pseudotyped lentiviral vector; experiment: cell-based or functional assay; remark: listed apart in the source
[5] = target: T3, full-length Sudan GP (GPFL) (Sudan virus (SUDV), UniProt Q7T9D9 33-650); experiment: ELISA on coated GP
T3 construct: also called Sudan GPFL; GP(S)FL
T3 sequence: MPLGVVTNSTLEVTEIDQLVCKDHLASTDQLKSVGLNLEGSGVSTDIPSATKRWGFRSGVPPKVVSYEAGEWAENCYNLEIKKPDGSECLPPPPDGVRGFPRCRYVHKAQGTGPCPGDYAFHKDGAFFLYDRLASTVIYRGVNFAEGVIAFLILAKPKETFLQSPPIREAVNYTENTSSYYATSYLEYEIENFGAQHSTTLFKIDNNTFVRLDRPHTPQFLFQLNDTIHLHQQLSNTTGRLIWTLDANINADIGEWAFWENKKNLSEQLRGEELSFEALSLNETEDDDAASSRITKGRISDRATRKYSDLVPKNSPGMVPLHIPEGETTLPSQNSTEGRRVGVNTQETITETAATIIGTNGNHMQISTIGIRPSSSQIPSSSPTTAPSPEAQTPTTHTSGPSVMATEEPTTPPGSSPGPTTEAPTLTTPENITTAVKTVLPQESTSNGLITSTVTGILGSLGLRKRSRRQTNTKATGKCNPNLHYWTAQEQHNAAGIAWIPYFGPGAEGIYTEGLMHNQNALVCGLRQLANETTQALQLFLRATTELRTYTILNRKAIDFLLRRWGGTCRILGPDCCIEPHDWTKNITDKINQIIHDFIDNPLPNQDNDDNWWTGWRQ

[6] = target: T4, SUDV GP on pseudotyped lentiviral vector (Sudan virus (SUDV), UniProt Q7T9D9 33-676); experiment: cell-based or functional assay
T4 sequence: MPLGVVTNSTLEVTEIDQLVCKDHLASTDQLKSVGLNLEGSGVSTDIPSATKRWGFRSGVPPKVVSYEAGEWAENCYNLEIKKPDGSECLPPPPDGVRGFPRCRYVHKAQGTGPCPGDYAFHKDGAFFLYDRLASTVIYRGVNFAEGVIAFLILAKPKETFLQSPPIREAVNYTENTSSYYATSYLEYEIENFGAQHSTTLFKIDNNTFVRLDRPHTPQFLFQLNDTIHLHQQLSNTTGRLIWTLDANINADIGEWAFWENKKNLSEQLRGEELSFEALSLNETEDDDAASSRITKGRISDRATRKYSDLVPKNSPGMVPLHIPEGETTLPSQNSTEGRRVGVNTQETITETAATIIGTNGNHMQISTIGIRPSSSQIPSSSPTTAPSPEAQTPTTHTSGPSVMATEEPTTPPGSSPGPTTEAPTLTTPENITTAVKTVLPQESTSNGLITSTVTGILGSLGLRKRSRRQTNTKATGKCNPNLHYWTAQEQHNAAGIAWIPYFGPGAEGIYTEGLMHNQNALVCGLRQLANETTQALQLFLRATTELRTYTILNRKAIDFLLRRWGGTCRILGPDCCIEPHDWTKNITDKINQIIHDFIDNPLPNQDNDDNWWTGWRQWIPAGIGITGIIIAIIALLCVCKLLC

[7] = target: T3, full-length Sudan GP (GPFL); experiment: ELISA on coated GP; remark: listed apart in the source
[8] = target: T4, SUDV GP on pseudotyped lentiviral vector; experiment: cell-based or functional assay; remark: listed apart in the source
[9] = target: T3, full-length Sudan GP (GPFL); experiment: ELISA on coated GP; remark: listed apart in the source
[10] = target: T4, SUDV GP on pseudotyped lentiviral vector; experiment: cell-based or functional assay; remark: listed apart in the source

B1: antibody mAb114 (antibody, V domains shown)
VH: EVQLVESGGGLIQPGGSLRLSCAASGFALRMYDMHWVRQTIDKRLEWVSAVGPSGDTYYADSVKGRFAVSRENAKNSLSLQMNSLTAGDTAIYYCVRSDRGVAGLFDSWGQGILVTVSS
VL: DIQMTQSPSSLSASVGDRITITCRASQAFDNYVAWYQQRPGKVPKLLISAASALHAGVPSRFSGSGSGTHFTLTISSLQPEDVATYYCQNYNSAPLTFGGGTKVEIK
For B1, the EC50 [1] was 0.0239 mg/L, the EC50 [2] was 0.02 mg/L and the “IC50, microneutralization of GP-pseudotyped lentiviral vector on HEK293 cells” value (“IC50, microneutralization” below) [3] was 0.152 mg/L. The “IC50, microneutralization” value [4] was 0.18 mg/L.

B2: antibody 291S (antibody, V domains shown)
VH: QVQLQESGPGLVKPSQTLSLTCTVSGGSFSSGFYWSWIRQRPGKGLEWVGYTYYSGSTYYNPSLQSRVTISVDTSKNQFSLNLSSVTAADTAVYHCARADYGGLFDYWGQGILVTVSS
VL: QSVLTQPSSLSASPGASASLTCTLRSGINVGTYRIFWYQQKPGSPPQFLLRYNSDSDKQQGSGVPSRFSGSKDASANAGILLISGLQSEDEADYYCMIWHTSAWVFGGGTKLTVL
In the case of B2, the EC50 [5] is reported as 0.0565 mg/L and the “IC50, microneutralization” value [6] is reported as 2.89 mg/L.

B3: antibody 316L (antibody, V domains shown)
VH: EERLVESGGGLVQPGGSLRLSCAASGFTFGDYAMHWVRQVPGKSLEWLSGISWSGYTTYSADSVKGRFTISRDNAKNSLYLQMNRLRPEDTGLYYCVTLIGAIGIKDSLDVWGRGVLVTVSS
VL: QSVLTQPPSVSGAPGQRVTVSCSGSSSNIGAGNYVQWYQQLPGTAPKVLIYQTEKRPSGTSDRFSGSKSDTSASLTINGLQSEDEADYYCQVYDSNLNGWVFGGGTRLTVLG
notes: also called 316L mAb; mAb 316L
In the case of B3, the EC50 [7] is reported as 0.0175 mg/L, the EC50 [1] is reported as 0.0441 mg/L and the “IC50, microneutralization” value [8] is reported as 0.284 mg/L. For the same binder, the “IC50, microneutralization” value [3] was 1.77 mg/L.

B4: antibody 545S (antibody, V domains shown)
VH: QVQLQESGPGLVKPSQTLSLTCTVSGGSISRAGSYWSWIRQHPGKGLEWIGYISYSGSTYYNPSLESRVTMSLDTSKSQFSLKLSSVTAADTAVYYCAREDRSGFYGLDVWGQGTTVTVSS
VL: QSVLTQPSSLSASPGATASLTCTLRSGINVDTYRIYWYQQKPGSPPQYLLRYKSDSDKHQGSGVPSRFSGSKDASANAGILLISGLQSADEADYYCMIWHSGAWVFGGGTKLTVQG
notes: also called 545S mAb
B4 was tested, and the EC50 [5] was 0.0338 mg/L and the “IC50, microneutralization” value [6] was 0.624 mg/L.

B5: antibody 380L (antibody, V domains shown)
VH: EVQLVESGGGLVQPGGSLTLSCAASGFTFGDYVMHWVRQVPGRGLEWLSAVSWSGYTTYSADSVKGRFTISRDNAKNSLYLQMSRLGTADTGLYYCVTLIGAIGIRDSFDAWGRGVLVTVSS
VL: QSVLTQPPSMSGAPGQRVTVSCTGSSSNIGAGNYVQWYQQLPGTAPKVLIYQTDKRPSGISDRFSGSKSGTSASLTISGLQSEDEADYYCQVYDSSLNGWVFGGGTRLTVL
notes: also called 380L mAb; mAb 380L
In the case of B5, the EC50 [7] is reported as 0.0195 mg/L, the EC50 [1] is reported as 0.0398 mg/L and the “IC50, microneutralization” value [8] is reported as 0.395 mg/L. For the same binder, the “IC50, microneutralization” value [3] was 0.756 mg/L.

B6: antibody 16F6 (antibody, V domains shown)
VH: EVQLVESGGGLVTPGGSLKLSCAASGFAFNYYDMFWVRQNTEKRLEWVAYINSGGGNTYYPDTVKGRFTISRDNAKKTLFLQMSSLRSEDTAMYYCARQLYGNSFFDYWGQGTSLTVSA
VL: DIVMTQSHKFMSTSVGDRVTITCKASQDVTTAVAWYQQKPGHSPKLLIYWASTRHTGVPDRFTGSGSGTDFTLTLNSVQAEDLALYYCQQHYSTPLTFGAGTKLELK
In the case of B6, the EC50 [7] is reported as 0.068 mg/L, the EC50 [9] is reported as 0.16 mg/L and the “IC50, microneutralization” value [8] is reported as 0.068 mg/L. The “IC50, microneutralization” value [10] was 0.04 mg/L.
